Columns and labels:
[1] = Stability tests of Asp^B28 human insulin preparations in Penfill cartridges, varying phosphate and NaCl (Example IV); assay type: physicochemical; conditions: 19.6 μg Zn/100 U insulin, pH 7.4
Procedure: 375.7 mg Asp^B28 human insulin was dissolved in water by adding 1.6 ml 0.2N HCl and 49 μl zinc chloride solution (40 mg Zn/ml). 20 g of a solution containing 80 mg/g glycerol, 7.50 mg/g phenol and 8.60 mg/g m-cresol was added to the solution while mixing. Varying amounts (3.71 g to 6.71 g) of a solution containing 24.0 mg/g disodium phosphate dihydrate and 11 μl/g 2N sodium hydroxide was added while mixing, finally varying amounts (0 g to 3.65 g) of a solution containing 40 mg/g sodium chloride were added while mixing so as to obtain a sodium chloride concentration mentioned in table 6. pH was adjusted to pH 7.40±0.05 and water added up to 100 ml. The Asp^B28 Human insulin preparations were introduced into Penfill® cartridges and subjected to stability tests at 25° C. and 37° C. The stability data at the two different temperatures and three different phosphate concentrations and at 19.6 μg Zn/100 U insulin and pH=7.4 are summarized in Tables 4, 5 and 6.

[2] = Stability tests of Asp^B28 human insulin preparations in Penfill cartridges, varying NaCl (Example II); assay type: physicochemical; conditions: phosphate 13.5 mM, 19.6 μg Zn/100 U insulin, pH 7.4
Procedure: 370.4 mg AspB28 human insulin was dissolved in water by adding 1.6 ml 0.2N HCl and 49 μl zinc chloride solution (40 mg Zn/ml). 40 g of a solution containing 40 mg/ml glycerol, 3.75 mg/g phenol and 4.30 mg/g m-cresol was added to the insulin solution while mixing. 20 g of a solution containing a) 12.0 mg/g disodium phosphate dihydrate+5 μl/g 2N sodium hydroxide, b) 12.0 mg/g disodium phosphate dihydrate+5 μl/g 2N sodium hydroxide+5 mg/g sodium chloride or c) 12.0 mg/g disodium phosphate dihydrate+5 μl/g 2N sodium hydroxide+10 mg/g sodium chloride was added while mixing. pH was adjusted to pH 7.40±0.05 and water added up to 100 ml. The Asp^B28 Human insulin preparations were introduced into Penfill® cartridges and subjected to stability tests at 25° C. and 37° C. The stability data obtained at the two different temperatures and at a phosphate concentration of 13.5 mM, 19.6 μg Zn/100 U insulin and pH=7.4 are summarized in Table 2.

[3] = 6 weeks at 37° C., NaCl added 0 mM, total Cl^- 3.8 mM, phosphate 5 mM
[4] = 6 weeks at 37° C., NaCl added 0 mM, total Cl^- 3.8 mM, phosphate 7 mM
[5] = 6 weeks at 37° C., NaCl added 0 mM, total Cl^- 3.8 mM, phosphate 9 mM
[6] = 6 weeks at 37° C., NaCl added 5 mM, total Cl^- 8.8 mM, phosphate 5 mM
[7] = 6 weeks at 37° C., NaCl added 5 mM, total Cl^- 8.8 mM, phosphate 7 mM
[8] = 6 weeks at 37° C., NaCl added 5 mM, total Cl^- 8.8 mM, phosphate 9 mM
[9] = 6 weeks at 37° C., NaCl added 10 mM, total Cl^- 13.8 mM, phosphate 5 mM
[10] = 6 weeks at 37° C., NaCl added 10 mM, total Cl^- 13.8 mM, phosphate 7 mM
[11] = 6 weeks at 37° C., NaCl added 10 mM, total Cl^- 13.8 mM, phosphate 9 mM
[12] = 6 weeks at 37° C., NaCl added 15 mM, total Cl^- 18.8 mM, phosphate 5 mM
[13] = 6 weeks at 37° C., NaCl added 15 mM, total Cl^- 18.8 mM, phosphate 7 mM
[14] = 6 weeks at 37° C., NaCl added 15 mM, total Cl^- 18.8 mM, phosphate 9 mM
[15] = 6 weeks at 37° C., NaCl added 20 mM, total Cl^- 23.8 mM, phosphate 5 mM
[16] = 6 weeks at 37° C., NaCl added 20 mM, total Cl^- 23.8 mM, phosphate 7 mM
[17] = 6 weeks at 37° C., NaCl added 20 mM, total Cl^- 23.8 mM, phosphate 9 mM
[18] = 6 weeks at 37° C., NaCl added 25 mM, total Cl^- 28.8 mM, phosphate 5 mM
[19] = 6 weeks at 37° C., NaCl added 25 mM, total Cl^- 28.8 mM, phosphate 7 mM
[20] = 6 weeks at 37° C., NaCl added 25 mM, total Cl^- 28.8 mM, phosphate 9 mM
[21] = 12 weeks at 25° C., NaCl added 0 mM, total Cl^- 3.8 mM, phosphate 5 mM
[22] = 12 weeks at 25° C., NaCl added 0 mM, total Cl^- 3.8 mM, phosphate 7 mM
[23] = 12 weeks at 25° C., NaCl added 5 mM, total Cl^- 8.8 mM, phosphate 5 mM
[24] = 12 weeks at 25° C., NaCl added 5 mM, total Cl^- 8.8 mM, phosphate 7 mM
[25] = 12 weeks at 25° C., NaCl added 5 mM, total Cl^- 8.8 mM, phosphate 9 mM
[26] = 12 weeks at 25° C., NaCl added 10 mM, total Cl^- 13.8 mM, phosphate 5 mM
[27] = 12 weeks at 25° C., NaCl added 10 mM, total Cl^- 13.8 mM, phosphate 7 mM
[28] = 12 weeks at 25° C., NaCl added 10 mM, total Cl^- 13.8 mM, phosphate 9 mM
[29] = 12 weeks at 25° C., NaCl added 15 mM, total Cl^- 18.8 mM, phosphate 5 mM
[30] = 12 weeks at 25° C., NaCl added 15 mM, total Cl^- 18.8 mM, phosphate 7 mM
[31] = 12 weeks at 25° C., NaCl added 15 mM, total Cl^- 18.8 mM, phosphate 9 mM
[32] = 12 weeks at 25° C., NaCl added 20 mM, total Cl^- 23.8 mM, phosphate 5 mM
[33] = 12 weeks at 25° C., NaCl added 20 mM, total Cl^- 23.8 mM, phosphate 7 mM
[34] = 12 weeks at 25° C., NaCl added 20 mM, total Cl^- 23.8 mM, phosphate 9 mM
[35] = 12 weeks at 25° C., NaCl added 25 mM, total Cl^- 28.8 mM, phosphate 5 mM
[36] = 12 weeks at 25° C., NaCl added 25 mM, total Cl^- 28.8 mM, phosphate 7 mM
[37] = 12 weeks at 25° C., NaCl added 25 mM, total Cl^- 28.8 mM, phosphate 9 mM
[38] = 8 months at 25° C., NaCl added 0 mM, total conc. of Cl^- 4.4
[39] = 8 months at 25° C., NaCl added 17 mM, total conc. of Cl^- 20.8
[40] = 8 months at 25° C., NaCl added 34 mM, total conc. of Cl^- 37.8
[41] = 8 weeks at 37° C., NaCl added 0 mM, total conc. of Cl^- 4.4
[42] = 8 weeks at 37° C., NaCl added 17 mM, total conc. of Cl^- 20.8
[43] = 8 weeks at 37° C., NaCl added 34 mM, total conc. of Cl^- 37.8

Asp^B28 human insulin
Asp^B28 Des-amido insulins formed [1, 3]: 4.7%
Di- & polymers formed [1, 3]: 1.4%
Asp^B28 Des-amido insulins formed [1, 4]: 4.3%
Di- & polymers formed [1, 4]: 1.2%
Asp^B28 Des-amido insulins formed [1, 5]: 4.9%
Di- & polymers formed [1, 5]: 1.2%
Asp^B28 Des-amido insulins formed [1, 6]: 3.7%
Di- & polymers formed [1, 6]: 1.3%
Asp^B28 Des-amido insulins formed [1, 7]: 3.6%
Di- & polymers formed [1, 7]: 1.2%
Asp^B28 Des-amido insulins formed [1, 8]: 4.0%
Di- & polymers formed [1, 8]: 1.1%
Asp^B28 Des-amido insulins formed [1, 9]: 3.4%
Di- & polymers formed [1, 9]: 1.2%
Asp^B28 Des-amido insulins formed [1, 10]: 3.1%
Di- & polymers formed [1, 10]: 1.1%
Asp^B28 Des-amido insulins formed [1, 11]: 3.7%
Di- & polymers formed [1, 11]: 1.0%
Asp^B28 Des-amido insulins formed [1, 12]: 3.1%
Di- & polymers formed [1, 12]: 1.1%
Asp^B28 Des-amido insulins formed [1, 13]: 3.1%
Di- & polymers formed [1, 13]: 1.0%
Asp^B28 Des-amido insulins formed [1, 14]: 3.5%
Di- & polymers formed [1, 14]: 1.0%
Asp^B28 Des-amido insulins formed [1, 15]: 2.7%
Di- & polymers formed [1, 15]: 1.1%
Asp^B28 Des-amido insulins formed [1, 16]: 2.9%
Di- & polymers formed [1, 16]: 1.0%
Asp^B28 Des-amido insulins formed [1, 17]: 3.5%
Di- & polymers formed [1, 17]: 1.0%
Asp^B28 Des-amido insulins formed [1, 18]: 3.0%
Di- & polymers formed [1, 18]: 0.9%
Asp^B28 Des-amido insulins formed [1, 19]: 2.8%
Di- & polymers formed [1, 19]: 1.1%
Asp^B28 Des-amido insulins formed [1, 20]: 3.1%
Di- & polymers formed [1, 20]: 0.9%
Asp^B28 Des-amido insulins formed [1, 21]: 2.2%
Di- & polymers formed [1, 21]: 0.5%
Asp^B28 Des-amido insulins formed [1, 22]: 2.0%
Di- & polymers formed [1, 22]: 0.5%
Di- & polymers formed ([1]; 12 weeks at 25° C., NaCl added 0 mM, total Cl^- 3.8 mM, phosphate 9 mM): 0.4%
Asp^B28 Des-amido insulins formed [1, 23]: 1.7%
Di- & polymers formed [1, 23]: 0.4%
Asp^B28 Des-amido insulins formed [1, 24]: 1.7%
Di- & polymers formed [1, 24]: 0.4%
Asp^B28 Des-amido insulins formed [1, 25]: 1.8%
Di- & polymers formed [1, 25]: 0.4%
Asp^B28 Des-amido insulins formed [1, 26]: 1.5%
Di- & polymers formed [1, 26]: 0.4%
Asp^B28 Des-amido insulins formed [1, 27]: 1.4%
Di- & polymers formed [1, 27]: 0.4%
Asp^B28 Des-amido insulins formed [1, 28]: 1.5%
Di- & polymers formed [1, 28]: 0.4%
Asp^B28 Des-amido insulins formed [1, 29]: 1.4%
Di- & polymers formed [1, 29]: 0.4%
Asp^B28 Des-amido insulins formed [1, 30]: 1.5%
Di- & polymers formed [1, 30]: 0.4%
Asp^B28 Des-amido insulins formed [1, 31]: 1.5%
Di- & polymers formed [1, 31]: 0.4%
Asp^B28 Des-amido insulins formed [1, 32]: 1.3%
Di- & polymers formed [1, 32]: 0.4%
Asp^B28 Des-amido insulins formed [1, 33]: 1.4%
Di- & polymers formed [1, 33]: 0.4%
Asp^B28 Des-amido insulins formed [1, 34]: 1.6%
Di- & polymers formed [1, 34]: 0.4%
Asp^B28 Des-amido insulins formed [1, 35]: 1.3%
Di- & polymers formed [1, 35]: 0.4%
Asp^B28 Des-amido insulins formed [1, 36]: 1.3%
Di- & polymers formed [1, 36]: 0.4%
Asp^B28 Des-amido insulins formed [1, 37]: 1.4%
Di- & polymers formed [1, 37]: 0.4%
Asp^B28 Des-amido insulins formed [2, 38]: 6.4%
Di- & polymers formed [2, 38]: 1.0%
Asp^B28 Des-amido insulins formed [2, 39]: 4.1%
Di- & polymers formed [2, 39]: 0.8%
Asp^B28 Des-amido insulins formed [2, 40]: 3.7%
Di- & polymers formed [2, 40]: 0.8%
Asp^B28 Des-amido insulins formed [2, 41]: 7.0%
Di- & polymers formed [2, 41]: 1.86%
Asp^B28 Des-amido insulins formed [2, 42]: 4.2%
Di- & polymers formed [2, 42]: 1.29%
Asp^B28 Des-amido insulins formed [2, 43]: 3.5%
Di- & polymers formed [2, 43]: 1.07%

Source: patent US5866538A, “Insulin preparations containing NaCl” (Novo Nordisk A/S, priority 1996, dated 1999)
